To fix the notation:
B1: Lactose operon repressor, P03023 (parent)
chain: MKPVTLYDVAEYAGVSYQTVSRVVNQASHVSAKTREKVEAAMAELNYIPNRVAQQLAGKQSLLIGVATSSLALHAPSQIVAAIKSRADQLGASVVVSMVERSGVEACKAAVHNLLAQRVSGLIINYPLDDQDAIAVEAACTNVPALFLDVSDQTPINSIIFSHEDGTRLGVEHLVALGHQQIALLAGPLSSVSARLRLAGWHKYLTRNQIQPIAEREGDWSAMSGFQQTMQMLNEGIVPTAMLVANDQMALGAMRAITESGLRVGADISVVGYDDTEDSSCYIPPLTTIKQDFRLLGQTSVDRLLQLSQGQAVKGNQLLPVSLVKRKTTLAPNTQTASPRALADSLMQLARQVSRLESGQ
B2: Glutamate dehydrogenase, Q56304 (parent)
chain: MVEQDPFEIAVKQLERAAQYMDISEEALEFLKRPQRIVEVSIPVEMDDGSVKVFTGFRVQYNWARGPTKGGIRWHPEETLSTVKALAAWMTWKTAVMDLPYGGGKGGVICNPKEMSDREKERLARGYVRAIYDVISPYTDIPAPDVYTNPQIMAWMMDEYETISRRKDPSFGVITGKPPSVGGIVARMDATARGASYTVREAAKALGMDLKGKTIAIQGYGNAGYYMAKIMSEEYGMKVVAVSDSKGGIYNPDGLNADEVLAWKKKTGSVKDFPGATNITNEELLELEVDVLAPSAIEEVITKKNADNIKAKIVAELANGPTTPEADEILYEKGILIIPDFLCNAGGVTVSYFEWVQNITGDYWTVEETRAKLDKKMTKAFWDVYNTHKEKNINMRDAAYVVAVSRVYQAMKDRGWIKK
B3: Beta-crystallin B2, P02522 (parent)
chain: MASDHQTQAGKPQPLNPKIIIFEQENFQGHSHELNGPCPNLKETGVEKAGSVLVQAGPWVGYEQANCKGEQFVFEKGEYPRWDSWTSSRRTDSLSSLRPIKVDSQEHKITLYENPNFTGKKMEVIDDDVPSFHAHGYQEKVSSVRVQSGTWVGYQYPGYRGLQYLLEKGDYKDSGDFGAPQPQVQSVRRIRDMQWHQRGAFHPSS
B4: Interleukin-6, P08505 (parent)
chain: MKFLSARDFHPVAFLGLMLVTTTAFPTSQVRRGDFTEDTTPNRPVYTTSQVGGLITHVLWEIVEMRKELCNGNSDCMNNDDALAENNLKLPEIQRNDGCYQTGYNQEICLLKISSGLLEYHSYLEYMKNNLKDNKKDKARVLQRDTETLIHIFNQEVKDLHKIVLPTPISNALLTDKLESQKEWLRTKTIQFILKSLEEFLKVTLRSTRQT
B5: Gamma-crystallin D, P07320 (parent)
chain: MGKITLYEDRGFQGRHYECSSDHPNLQPYLSRCNSARVDSGCWMLYEQPNYSGLQYFLRRGDYADHQQWMGLSDSVRSCRLIPHSGSHRIRLYEREDYRGQMIEFTEDCSCLQDRFRFNEIHSLNVLEGSWVLYELSNYRGRQYLLMPGDYRRYQDWGATNARVGSLRRVIDFS

The term Tm denotes the temperature at the midpoint of the melting transition.

Variants of B1 are the subject of one data set. The settings on record: Escherichia coli (strain K12); pH 7.5; Urea; CD; Tris-HCl 0.01 M; K2SO4 0.1 M; reversible: yes (90%); structure 1LBI; whole UniProt chain shown.
On to MKPVTLYDVAEYAGVSYQTVSRVVNQASHVSAKTREKVEAAMAELNYIPNRVAQQLAGKQSLLIGVATSSLALHAPSQIVAAIKSRADQLGASVVVSMVERSGVEACKAAVHNLLAQRVSGLIINYPLDDQDAIAVEAACTNVPALFLDVSDQTPINSIIFSHEDGTRLGVEHLVALGHQQIALLAGPLSSVSARLRLAGWHKYLTRNQIQPIAEREGDWSAMSGFQQTMQMLNEGIVPTAMLVANDQMALGAMRAITESGLRVGADISVVGYDDTEDSSCDIPPLTTIKQDFRLLGQTSVDRLLQLSQGQAVKGNQLLPVSLVKRKTTLAPNTQTASPRALADSLMQLARQVSRLESGQ [Y282D], for which the unfolding free energy was 4.8 kcal/mol.

The same data set, now with this note: Escherichia coli (strain K12); pH 7.4; Thermal; CD; phosphate 5 mM; reversible: no; structure 1LBI; whole UniProt chain shown.
As to MKPVTLYDVAEYAGVSYQTVSRVVNQASHVSAKTREKVEAAMAELNYIPNRVAQQLAGKQSLLIGVATSSLALHAPSQIVAAILSRADQLGASVVVSMVERSGVEACKAAVHNLLAQRVSGLIINYPLDDQDAIAVEAACTNVPALFLDVSDQTPINSIIFSHEDGTRLGVEHLVALGHQQIALLAGPLSSVSARLRLAGWHKYLTRNQIQPIAEREGDWSAMSGFQQTMQMLNEGIVPTAMLVANDQMALGAMRAITESGLRVGADISVVGYDDTEDSSCYIPPLTTIKQDFRLLGQTSVDRLLQLSQGQAVKGNQLLPVSLVKRKTTLAPNTQTASPRALADSLMQLARQVSRLESGQ [K84L], the melting temperature (Tm) is 93 °C.

As for MKPVTLYDVAEYAGVSYQTVSRVVNQASHVSAKTREKVEAAMAELNYIPNRVAQQLAGKQSLLIGVATSSLALHAPSQIVAAIMSRADQLGASVVVSMVERSGVEACKAAVHNLLAQRVSGLIINYPLDDQDAIAVEAACTNVPALFLDVSDQTPINSIIFSHEDGTRLGVEHLVALGHQQIALLAGPLSSVSARLRLAGWHKYLTRNQIQPIAEREGDWSAMSGFQQTMQMLNEGIVPTAMLVANDQMALGAMRAITESGLRVGADISVVGYDDTEDSSCYIPPLTTIKQDFRLLGQTSVDRLLQLSQGQAVKGNQLLPVSLVKRKTTLAPNTQTASPRALADSLMQLARQVSRLESGQ [K84M], the Tm is 93 °C.

The variants in a further data set derive from B2. To be noted: Thermococcus litoralis (strain ATCC 51850 / DSM 5473 / JCM 8560 / NS-C); pH 7; Thermal; DSC; diglycine 50 mM; KCl 700 mM; reversible: no; structure 1BVU; whole UniProt chain shown.
Regarding MVEQDPFEIAVKQLERAAQYMDISEEALEFLKRPQRIVEVSIPVEMDDGSVKVFTGFRVQYNWARGPTKGGIRWHPEETLSTVKALAAWMTWKTAVMDLPYGGGKGGVICNPKEMSDREKERLARGYVRAIYDVISPYTDIPAPDVYTNPQIMAWMMDEYETISRRKTPSFGVITGKPPSVGGIVARMDATARGASYTVREAAKALGMDLKGKTIAIQGYGNAGYYMAKIMSEEYGMKVVAVSDSKGGIYNPDGLNADEVLAWKKKTGSVKDFPGATNITNEELLELEVDVLAPSAIEEVITKKNADNIKAKIVAELANGPTTPEADEILYEKGILIIPDFLCNAGGVTVSYFEWVQNITGDYWTVEETRAKLDKKMTKAFWDVYNTHKEKNINMRDAAYVVAVSRVYQAMKDRGWIKK [D168T], the Tm was 108 °C and the “change of melting temperature, mutant - wild type (higher = more stable)” value (shortened to “change of melting temperature, mutant”) is -0.5 °C.

Regarding MVEQDPFEIAVKQLERAAQYMDISEEALEFLKRPQRIVEVSIPVEMDDGSVKVFTGFRVQYNWARGPTKGGIRWHPEETLSTVKALAAWMTWKTAVMDLPYGGGKGGVICNPKEMSDREKERLARGYVRAIYDVISPYEDIPAPDVYTNPQIMAWMMDEYETISRRKTPSFGVITGKPPSVGGIVARMDATARGASYTVREAAKALGMDLKGKTIAIQGYGNAGYYMAKIMSEEYGMKVVAVSDSKGGIYNPDGLNADEVLAWKKKTGSVKDFPGATNITNEELLELEVDVLAPSAIEEVITKKNADNIKAKIVAELANGPTTPEADEILYEKGILIIPDFLCNAGGVTVSYFEWVQNITGDYWTVEETRAKLDKKMTKAFWDVYNTHKEKNINMRDAAYVVAVSRVYQAMKDRGWIKK [T139E D168T], the Tm was 112 °C and the “change of melting temperature, mutant” value is 2.5 °C.

MVEQDPFEIAVKQLERAAQYMDISEEALEFLKRPQRIVEVSIPVEMDDGSVKVFTGFRVQYNWARGPTKGGIRWHPEETLSTVKALAAWMTWKTAVMDLPYGGGKGGVICNPKEMSDREKERLARGYVRAIYDVISPYEDIPAPDVYTNPQIMAWMMDEYETISRRKDPSFGVITGKPPSVGGIVARMDATARGASYTVREAAKALGMDLKGKTIAIQGYGNAGYYMAKIMSEEYGMKVVAVSDSKGGIYNPDGLNADEVLAWKKKTGSVKDFPGATNITNEELLELEVDVLAPSAIEEVITKKNADNIKAKIVAELANGPTTPEADEILYEKGILIIPDFLCNAGGVTVSYFEWVQNITGDYWTVEETRAKLDKKMTKAFWDVYNTHKEKNINMRDAAYVVAVSRVYQAMKDRGWIKK [T139E]: the Tm was found to be 104 °C and the “change of melting temperature, mutant” value is -5.5 °C.

The variants in a further data set derive from B3. To be noted: Bos taurus; pH 7.2; Thermal; fluorescence; sodium phospahte 20 mM; NaCl; transition: 2; structure 2BB2; whole UniProt chain shown.
Regarding MASDHQTQAGKPQPLNPKIIIFEQENFQGHSHELNGPCPNLKETGVEKAGSVLVQAGPCVGYEQANCKGEQFVFEKGEYPRWDSWTSSRRTDSLSSLRPIKVDSQEHKITLYENPNFTGKKMEVIDDDVPSFHAHGYQEKVSSVRVQSGTWVGYQYPGYRGLQYLLEKGDYKDSGDFGAPQPQVQSVRRIRDMQWHQRGAFHPSS [W59C], the Tm is 46.8 °C and the “change of melting temperature, mutant” value is -10 °C.

The next data set covers variants of B4. To be noted: Mus musculus; pH 4; 25 °C; Urea; CD; Sodium acetate 20 mM/; reversible: yes; structure 2L3Y; whole UniProt chain shown.
Take MKFLSARDFHPVAFLGLMLVTTTAFPTSQVRRGDFTEDTTPNRPVYTTSQVGGLITHVLWEIVEMRKELCNGNSDCMNNDDALAENNLKLPEIQRNDGCYQTGYNQEICLLKISSGLLEYHSALEYMKNNLKDNKKDKARVLQRDTETLIHIFNQEVKDLHKIVLPTPISNALLTDKLESQKEWLRTKTIQFILKSLEEFLKVTLRSTRQT [Y123A]: the “denaturant midpoint (higher = more stable)” value (“denaturant midpoint” for short) came to 4.1 M.

On to MKFLSARDFHPVAFLGLMLVTTTAFPTSQVRRGDFTEDTTPNRPVYTTSQVGGLITHVLWEIVEMRKELCNGNSDCMNNDDALAENNLKLPEIQRNDGCYQTGYNQEICLLKISSGLLEYHSYLEYMKNNLKDNKKDKARVLQRDTETLIHIFNQEVKDLHKIVLPTPISNALLTDKLESQKEWLRTKTIQFILKSLEEALKVTLRSTRQT [F200A], for which the “denaturant midpoint” value stood at 2.6 M.

The same data set, now with this note: Mus musculus; pH 4; 25 °C; Urea; Fluorescence; Sodium acetate 20 mM/; reversible: yes; structure 2L3Y; whole UniProt chain shown.
With MKFLSARDFHPVAFLGLMLVTTTAFPTSQVRRGDFTEDTTPNRPVYTTSQVGGLITHVLWEIVEMRKELCNGNSDCMNNDDALAENNLKLPEIQRNDGCYQTGYNQEICLLKISSGLLEYHSYLEYMKNNLKDNKKDKARVLQRDTETLIHIFNQEVKDLHKIVLPTPISNALLTDKLESQKEWLRTKTIQFILKSLEEALKVTLRSTRQT [F200A], the “denaturant midpoint” value came out at 3.5 M.

Still in this data set, the particulars now being: Mus musculus; pH 4; 37 °C; Urea; CD; Sodium acetate 20 mM/; reversible: yes; structure 2L3Y; whole UniProt chain shown.
On to MKFLSARDFHPVAFLGLMLVTTTAFPTSQVRRGDFTEDTTPNRPVYTTSQVGGLITHVLWEIVEMRKELCNGNSDCMNNDDALAENNLKLPEIQRNDGCYQTGYNQEICLLKISSGLLEYHSYLEYMKNNLKDNKKDKARVLQRDTETLIHIFNQEVKDLHKIVLPTPISNALLTDKLESQKEWLRTKTIQFILKSLEEALKVTLRSTRQT [F200A], for which the “denaturant midpoint” value amounted to 2.6 M.

Staying with this data set, now noted: Mus musculus; pH 4; 37 °C; Urea; Fluorescence; Sodium acetate 20 mM/; reversible: yes; structure 2L3Y; whole UniProt chain shown.
With MKFLSARDFHPVAFLGLMLVTTTAFPTSQVRRGDFTEDTTPNRPVYTTSQVGGLITHVLWEIVEMRKELCNGNSDCMNNDDALAENNLKLPEIQRNDGCYQTGYNQEICLLKISSGLLEYHSYLEYMKNNLKDNKKDKARVLQRDTETLIHIFNQEVKDLHKIVLPTPISNALLTDKLESQKEWLRTKTIQFILKSLEEALKVTLRSTRQT [F200A], the “denaturant midpoint” value was found to be 3.5 M.

The variants in a further data set derive from B5. To be noted: Homo sapiens; pH 7; Thermal; ANS fluorescence; PBS; transition: 2; reversible: yes; structure 1HK0; whole UniProt chain shown.
Take G61C: the Tm was determined as 69.6 °C and the “change of melting temperature, mutant” value is -7 °C.

Staying with this data set, now noted: Homo sapiens; pH 7; Thermal; CD; PBS; transition: 2; reversible: yes; structure 1HK0; whole UniProt chain shown.
Turning to G61C, the Tm was 73.9 °C and the “change of melting temperature, mutant” value is -6.1 °C.

The data set is the same for the next values; noted with them: Homo sapiens; pH 7; Thermal; Fluorescence; PBS; transition: 2; reversible: yes; structure 1HK0; whole UniProt chain shown.
With G61C, the Tm worked out at 74.3 °C.

The data set is the same for the next values; noted with them: Homo sapiens; pH 7; Thermal; light scattering; PBS; transition: 2; reversible: yes; structure 1HK0; whole UniProt chain shown.
In the case of G61C, the Tm worked out at 75.1 °C.
